Patent US20210122813A1 (Kyowa Kirin, published 2021)

T1: human BMP10 mature dimer (manufactured by R & D Systems, Inc., Cat #2926-BP) (human, UniProt O95393 317-424)
T1 construct: Bought product; also called human mature BMP10; mature BMP10
T1 sequence: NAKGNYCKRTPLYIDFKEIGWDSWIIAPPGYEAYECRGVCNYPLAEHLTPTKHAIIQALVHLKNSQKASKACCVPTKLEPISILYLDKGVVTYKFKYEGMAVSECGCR


Each binder was assayed against T1, human BMP10 mature dimer (manufactured …) (assay: SPR (Biacore T100), antibody captured by anti-human IgG, human BMP10 mature dimer as analyte).
Experimental: The binding activity of the anti-BMP10 antibody was measured as follows. An anti-human IgG antibody was immobilized on a CMS sensor chip (manufactured by GE Healthcare Bio-Sciences, Inc., BR100530) using Human Antibody Capture Kit (manufactured by GE Healthcare Bio-Sciences Corporation, Cat #BR-1008-39) according to the attached protocol. To a flow cell in which the anti-human IgG antibody was immobilized, the antibody prepared at 5 μg/mL was added at a flow rate of 10 μL/min for 10 seconds.
Subsequently, human mature BMP10 prepared at 5 concentrations by 3-fold serial dilution from the 100 ng/mL was added thereto at a flow rate of 30 μL/min, and a binding reaction was monitored for 1 minute and a dissociation reaction was monitored for 10 minutes. The obtained sensorgram was analyzed using Bia Evaluation Software (manufactured by GE Healthcare Bio-Sciences Corporation), and the kinetic constant of each antibody was calculated. The calculated association rate constant (ka), dissociation rate constant (kd), and dissociation constant [kd/ka=KD] of each antibody are shown in Table 4.

Binder	Kd [pM]
VLres04HVmut04 (antibody, V domains shown, Humanized 18C1 antibody; also called VLres04HVmut04 antibody; hz18C1 antibody) VH: QVQLQESGPDLVQPSQTLDITCTVSGFSLTTYNVHWVRQPPGKGLEWMGTMWNGGGIDYNSAFKSRLAISRDTSKNEVFLKMDSLQTDDTAKYFCARLGYYVDYWGQGILVTVSS VL: QFALIQSDSMSTSAGSTVKLSCKRSTGNIGSSYVYWYQQHEGRSPTTMIYDGDKRPDGVPDRFSGSIDSSSNSASLTINDVQIEDEAVYFCQSFSSGIKFIFGGGTKLTVL	3.19
VLres08HVmut04 (antibody, V domains shown, Humanized 18C1 antibody; also called hz18C1 antibody; anti-BMP10 humanized antibody) VH: QVQLQESGPDLVQPSQTLDITCTVSGFSLTTYNVHWVRQPPGKGLEWMGTMWNGGGIDYNSAFKSRLAISRDTSKNEVFLKMDSLQTDDTAKYFCARLGYYVDYWGQGILVTVSS VL: QFALIQSDSMSTSAGSTVKLSCKRSTGNIGSSYVYWYQQHEGRSPTTMIYDGDKRPDGVPDRFSGSIDSSSNSASLTINDVQVEDEAIYFCQSFSSGIKFIFGGGTKLTVL	2.88
VLres04VHres16 (antibody, V domains shown, Humanized 18C1 antibody; also called VLres04VHres16 antibody; hz18C1 antibody) VH: QVQLKETGPDLVQPTQTLDITCTVSGFSLTTYNVHWVRQPPGKGLEWMGTMWNGGGIDYNSAFKSRLAISRDTSKSEVFLKMDSLQTDDTAKYFCARLGYYVDYWGQGIMVTVSS VL: QFALIQSDSMSTSAGSTVKLSCKRSTGNIGSSYVYWYQQHEGRSPTTMIYDGDKRPDGVPDRFSGSIDSSSNSASLTINDVQIEDEAVYFCQSFSSGIKFIFGGGTKLTVL	3.21
VLres06HVmut10 (antibody, V domains shown, Humanized 18C1 antibody; also called hz18C1 antibody; anti-BMP10 humanized antibody) VH: QVQLQESGPDLVQPSQTLDITCTVSGFSLTTYNVHWVRQPPGKGLEWMGTMWNGGGIDYNSAFKDRLAISRDTSKNEVFLKMDSLQTDDTAVYFCARLGYYVDYWGQGILVTVSS VL: QFVLIQSDSMSTSAGSTVKLSCKRSTGNIGSSYVYWYQQHEGRSPTTMIYDGDKRPDGVPDRFSGSIDSSSNSASLTINDVQVEDEAIYFCQSFSSGIKFIFGGGTKLTVL	2.94
VLres06HVmut02 (antibody, V domains shown, Humanized 18C1 antibody; also called hz18C1 antibody; anti-BMP10 humanized antibody) VH: QVQLQESGPDLVKPSQTLDITCTVSGFSLTTYNVHWVRQPPGKGLEWMGTMWNGGGIDYNSAFKSRLTISRDTSKNQVFLKMDSLQTDDTAKYFCARLGYYVDYWGQGILVTVSS VL: QFVLIQSDSMSTSAGSTVKLSCKRSTGNIGSSYVYWYQQHEGRSPTTMIYDGDKRPDGVPDRFSGSIDSSSNSASLTINDVQVEDEAIYFCQSFSSGIKFIFGGGTKLTVL	3.37
VLres07VHres16 (antibody, V domains shown, Humanized 18C1 antibody; also called VLres07VHres16 antibody; hz18C1 antibody) VH: QVQLKETGPDLVQPTQTLDITCTVSGFSLTTYNVHWVRQPPGKGLEWMGTMWNGGGIDYNSAFKSRLAISRDTSKSEVFLKMDSLQTDDTAKYFCARLGYYVDYWGQGIMVTVSS VL: QFALIQSDSMSTSLGSTVTLSCKRSTGNIGSSYVYWYQQHEGRSPTTMIYDGDKRPDGVPDRFSGSIDSSSNSASLTINDVQVEDEAIYFCQSFSSGIKFIFGGGTKLTVL	3.11
VLres02HVmut08 (antibody, V domains shown, Humanized 18C1 antibody; also called hz18C1 antibody; anti-BMP10 humanized antibody) VH: QVQLQESGPDLVKPSQTLDITCTVSGFSLTTYNVHWVRQPPGKGLEWMGTMWNGGGIDYNSAFKDRLTISRDTSKNQVFLKMDSLQTDDTAVYFCARLGYYVDYWGQGILVTVSS VL: QFVLIQSDSMSTSAGSTVKLSCKRSTGNIGSSYVYWYQQHEGRSPTTMIYDGDKRPDGVPDRFSGSIDSSSNSASLTINDVQIEDEAVYFCQSFSSGIKFIFGGGTKLTVL	3.05
VLres02HVmut07 (antibody, V domains shown, Humanized 18C1 antibody; also called hz18C1 antibody; anti-BMP10 humanized antibody) VH: QVQLQESGPDLVQPSQTLDITCTVSGFSLTTYNVHWVRQPPGKGLEWMGTMWNGGGIDYNSAFKDRLAISRDTSKNQVSLKMDSLQTDDTAKYFCARLGYYVDYWGQGILVTVSS VL: QFVLIQSDSMSTSAGSTVKLSCKRSTGNIGSSYVYWYQQHEGRSPTTMIYDGDKRPDGVPDRFSGSIDSSSNSASLTINDVQIEDEAVYFCQSFSSGIKFIFGGGTKLTVL	2.97
VLres08HVmut08 (antibody, V domains shown, Humanized 18C1 antibody; also called hz18C1 antibody; anti-BMP10 humanized antibody) VH: QVQLQESGPDLVKPSQTLDITCTVSGFSLTTYNVHWVRQPPGKGLEWMGTMWNGGGIDYNSAFKDRLTISRDTSKNQVFLKMDSLQTDDTAVYFCARLGYYVDYWGQGILVTVSS VL: QFALIQSDSMSTSAGSTVKLSCKRSTGNIGSSYVYWYQQHEGRSPTTMIYDGDKRPDGVPDRFSGSIDSSSNSASLTINDVQVEDEAIYFCQSFSSGIKFIFGGGTKLTVL	2.99
VLres07HVmut10 (antibody, V domains shown, Humanized 18C1 antibody; also called VLres07HVmut10 antibody; hz18C1 antibody) VH: QVQLQESGPDLVQPSQTLDITCTVSGFSLTTYNVHWVRQPPGKGLEWMGTMWNGGGIDYNSAFKDRLAISRDTSKNEVFLKMDSLQTDDTAVYFCARLGYYVDYWGQGILVTVSS VL: QFALIQSDSMSTSLGSTVTLSCKRSTGNIGSSYVYWYQQHEGRSPTTMIYDGDKRPDGVPDRFSGSIDSSSNSASLTINDVQVEDEAIYFCQSFSSGIKFIFGGGTKLTVL	2.69

Other lines, results leading:

Kd [pM]	Binder
3.06	VLres10HVmut08 (antibody, V domains shown, Humanized 18C1 antibody; also called hz18C1 antibody; anti-BMP10 humanized antibody) VH: QVQLQESGPDLVKPSQTLDITCTVSGFSLTTYNVHWVRQPPGKGLEWMGTMWNGGGIDYNSAFKDRLTISRDTSKNQVFLKMDSLQTDDTAVYFCARLGYYVDYWGQGILVTVSS VL: QFVLIQSDSMSTSAGSTVKLSCKRSTGNIGSSYVYWYQQHEGRSPTTMIYDGDKRPDGVPDRFSGSIDSSSNSASLTINNVQIEDEAVYFCQSFSSGIKFIFGGGTKLTVL
3.2	VLres10HVmut04 (antibody, V domains shown, Humanized 18C1 antibody; also called hz18C1 antibody; anti-BMP10 humanized antibody) VH: QVQLQESGPDLVQPSQTLDITCTVSGFSLTTYNVHWVRQPPGKGLEWMGTMWNGGGIDYNSAFKSRLAISRDTSKNEVFLKMDSLQTDDTAKYFCARLGYYVDYWGQGILVTVSS VL: QFVLIQSDSMSTSAGSTVKLSCKRSTGNIGSSYVYWYQQHEGRSPTTMIYDGDKRPDGVPDRFSGSIDSSSNSASLTINNVQIEDEAVYFCQSFSSGIKFIFGGGTKLTVL
3.41	VLres10HVmut02 (antibody, V domains shown, Humanized 18C1 antibody; also called VLres10HVmut02 antibody; hz18C1 antibody) VH: QVQLQESGPDLVKPSQTLDITCTVSGFSLTTYNVHWVRQPPGKGLEWMGTMWNGGGIDYNSAFKSRLTISRDTSKNQVFLKMDSLQTDDTAKYFCARLGYYVDYWGQGILVTVSS VL: QFVLIQSDSMSTSAGSTVKLSCKRSTGNIGSSYVYWYQQHEGRSPTTMIYDGDKRPDGVPDRFSGSIDSSSNSASLTINNVQIEDEAVYFCQSFSSGIKFIFGGGTKLTVL
2.84	VLres14HVmut10 (antibody, V domains shown, Humanized 18C1 antibody; also called VLres14HVmut10 antibody; hz18C1 antibody) VH: QVQLQESGPDLVQPSQTLDITCTVSGFSLTTYNVHWVRQPPGKGLEWMGTMWNGGGIDYNSAFKDRLAISRDTSKNEVFLKMDSLQTDDTAVYFCARLGYYVDYWGQGILVTVSS VL: QFVLIQSDSMSTSAGSTVKLSCKRSTGNIGSSYVYWYQQHEGRSPTTMIYDGDKRPDGVPDRFSGSIDSSSNSAFLTINDVQIEDEAVYFCQSFSSGIKFIFGGGTKLTVL
2.19	VLres10HVmut10 (antibody, V domains shown, Humanized 18C1 antibody; also called VLres10HVmut10 antibody; hz18C1 antibody) VH: QVQLQESGPDLVQPSQTLDITCTVSGFSLTTYNVHWVRQPPGKGLEWMGTMWNGGGIDYNSAFKDRLAISRDTSKNEVFLKMDSLQTDDTAVYFCARLGYYVDYWGQGILVTVSS VL: QFVLIQSDSMSTSAGSTVKLSCKRSTGNIGSSYVYWYQQHEGRSPTTMIYDGDKRPDGVPDRFSGSIDSSSNSASLTINNVQIEDEAVYFCQSFSSGIKFIFGGGTKLTVL
2.71	VLres14HVmut08 (antibody, V domains shown, Humanized 18C1 antibody; also called hz18C1 antibody; anti-BMP10 humanized antibody) VH: QVQLQESGPDLVKPSQTLDITCTVSGFSLTTYNVHWVRQPPGKGLEWMGTMWNGGGIDYNSAFKDRLTISRDTSKNQVFLKMDSLQTDDTAVYFCARLGYYVDYWGQGILVTVSS VL: QFVLIQSDSMSTSAGSTVKLSCKRSTGNIGSSYVYWYQQHEGRSPTTMIYDGDKRPDGVPDRFSGSIDSSSNSAFLTINDVQIEDEAVYFCQSFSSGIKFIFGGGTKLTVL
3.57	VLres10VHres16 (antibody, V domains shown, Humanized 18C1 antibody; also called VLres10VHres16 antibody; hz18C1 antibody) VH: QVQLKETGPDLVQPTQTLDITCTVSGFSLTTYNVHWVRQPPGKGLEWMGTMWNGGGIDYNSAFKSRLAISRDTSKSEVFLKMDSLQTDDTAKYFCARLGYYVDYWGQGIMVTVSS VL: QFVLIQSDSMSTSAGSTVKLSCKRSTGNIGSSYVYWYQQHEGRSPTTMIYDGDKRPDGVPDRFSGSIDSSSNSASLTINNVQIEDEAVYFCQSFSSGIKFIFGGGTKLTVL
3.25	VLres08VHres16 (antibody, V domains shown, Humanized 18C1 antibody; also called VLres08VHres16 antibody; hz18C1 antibody) VH: QVQLKETGPDLVQPTQTLDITCTVSGFSLTTYNVHWVRQPPGKGLEWMGTMWNGGGIDYNSAFKSRLAISRDTSKSEVFLKMDSLQTDDTAKYFCARLGYYVDYWGQGIMVTVSS VL: QFALIQSDSMSTSAGSTVKLSCKRSTGNIGSSYVYWYQQHEGRSPTTMIYDGDKRPDGVPDRFSGSIDSSSNSASLTINDVQVEDEAIYFCQSFSSGIKFIFGGGTKLTVL
2.99	VLres14HVmut07 (antibody, V domains shown, Humanized 18C1 antibody; also called hz18C1 antibody; anti-BMP10 humanized antibody) VH: QVQLQESGPDLVQPSQTLDITCTVSGFSLTTYNVHWVRQPPGKGLEWMGTMWNGGGIDYNSAFKDRLAISRDTSKNQVSLKMDSLQTDDTAKYFCARLGYYVDYWGQGILVTVSS VL: QFVLIQSDSMSTSAGSTVKLSCKRSTGNIGSSYVYWYQQHEGRSPTTMIYDGDKRPDGVPDRFSGSIDSSSNSAFLTINDVQIEDEAVYFCQSFSSGIKFIFGGGTKLTVL
3.3	VLres14VHres16 (antibody, V domains shown, Humanized 18C1 antibody; also called VLres14VHres16 antibody; hz18C1 antibody) VH: QVQLKETGPDLVQPTQTLDITCTVSGFSLTTYNVHWVRQPPGKGLEWMGTMWNGGGIDYNSAFKSRLAISRDTSKSEVFLKMDSLQTDDTAKYFCARLGYYVDYWGQGIMVTVSS VL: QFVLIQSDSMSTSAGSTVKLSCKRSTGNIGSSYVYWYQQHEGRSPTTMIYDGDKRPDGVPDRFSGSIDSSSNSAFLTINDVQIEDEAVYFCQSFSSGIKFIFGGGTKLTVL
